Test results from PMC10109501 (PLOS Pathogens, 2023).

Molecular target: SARS-CoV-2 original 2019-CoV Spike, prefusion trimeric ectodomain (2P, GSAS, T4 foldon) (SARS-CoV-2, UniProt P0DTC2 14-1213)
Assay: BLI
Settings: both partners purified

B1: cat ACE2-Fc (residues 19-615, mouse IgG2a Fc fusion) (Fc fusion)
chain: STTEELAKTFLEKFNHEAEELSYQSSLASWNYNTNITDENVQKMNEAGAKWSAFYEEQSKLAKTYPLAEIHNTTVKRQLQALQQSGSSVLSADKSQRLNTILNAMSTIYSTGKACNPNNPQECLLLEPGLDDIMENSKDYNERLWAWEGWRAEVGKQLRPLYEEYVALKNEMARANNYEDYGDYWRGDYEEEWTDGYNYSRSQLIKDVEHTFTQIKPLYQHLHAYVRAKLMDTYPSRISPTGCLPAHLLGDMWGRFWTNLYPLTVPFGQKPNIDVTDAMVNQSWDARRIFKEAEKFFVSVGLPNMTQGFWENSMLTEPGDSRKVVCHPTAWDLGKGDFRIKMCTKVTMDDFLTAHHEMGHIQYDMAYAVQPFLLRNGANEGFHEAVGEIMSLSAATPNHLKTIGLLSPGFSEDSETEINFLLKQALTIVGTLPFTYMLEKWRWMVFKGEIPKEQWMQKWWEMKREIVGVVEPVPHDETYCDPASLFHVANDYSFIRYYTRTIYQFQFQEALCRIAKHEGPLHKCDISNSSEAGKKLLQMLTLGKSKPWTLALEHVVGEKKMNVTPLLKYFEPLFTWLKEQNRNSFVGWNTDWRPYAD
B1: binds.
